Measurements from patent US20250026849A1 (ARCELLX, published 2025).

T1: BCMA (Homo sapiens (Human), UniProt Q02223 1-54, limits assumed)
T1 sequence: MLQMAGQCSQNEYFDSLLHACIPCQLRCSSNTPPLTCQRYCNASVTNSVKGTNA


Molecular target: T1, BCMA
Test: ELISA, format not described
Design: unit not given here

Row | Binder | ELISA_avg
1 | D-domain SEQ ID NO: 172 (designed binder) MGSWNEFRLRLWAITERLRALGGSEAELAAFEKEIAAFESELQAYKGKGNPEVECLRAEAAWIRTMLQAYRHN | 3.87
2 | D-domain SEQ ID NO: 219 (designed binder) MGSWGEFDVRLFAIRERLSALGGSEAELAAFEKEIAAFESELQAYKGKGNPEVEYLRGYAAQIRSFLQAYRHN | 7.35
3 | D-domain SEQ ID NO: 221 (designed binder) MGSWSEFDGRLGAIWDRLYALGGSEAELAAFEKEIAAFESELQAYKGKGNPEVEYLRDRAAQIREFLQAYRHN | 10
4 | D-domain SEQ ID NO: 220 (designed binder) MGSWVEFDERLSAIRERLDALGGSEAELAAFEKEIAAFESELQAYKGKGNPEVEYLRLYAAQIRVFLQAYRHN | 5.61
5 | D-domain SEQ ID NO: 182 (designed binder) MGSWSEFWDRLYAIRIRLDALGGSEAELAAFEKEIAAFESELQAYKGKGNPEVEKLRSVAARIRNWLQAYRHN | 12.5
6 | D-domain SEQ ID NO: 210 (designed binder) MGSWMEFWDRLYAIEFRLFALGGSEAELAAFEKEIAAFESELQAYKGKGNPEVEKLRRVAATIRNELQAYRHN | 11.7
7 | D-domain SEQ ID NO: 215 (designed binder) MGSWHEFWDRLYAIEFRLFALGGSEAELAAFEKEIAAFESELQAYKGKGNPEVESLRQVAAKIRWHLQAYRHN | 7.3
8 | D-domain SEQ ID NO: 211 (designed binder) MGSWTEFWERLYAIEYRLFALGGSEAELAAFEKEIAAFESELQAYKGKGNPEVEKLRSVAATIRYELQAYRHN | 12.7
9 | D-domain SEQ ID NO: 212 (designed binder) MGSWNEFWERLYAIELRLFALGGSEAELAAFEKEIAAFESELQAYKGKGNPEVEKLRMTAAYIRNELQAYRHN | 9.95
10 | D-domain SEQ ID NO: 183 (designed binder) MGSWSEFWFRLGAIRNRLDALGGSEAELAAFEKEIAAFESELQAYKGKGNPEVEKLRDVAAHIRHWLQAYRHN | 14.9
11 | D-domain SEQ ID NO: 184 (designed binder) MGSWSEFNDRLDAIRWRLDALGGSEAELAAFEKEIAAFESELQAYKGKGNPEVEWLRQVAATIRYRLQAYRHN | 13.6
12 | D-domain SEQ ID NO: 216 (designed binder) MGSWDEFEFRLGALRWRLIALGGSEAELAAFEKEIAAFESELQAYKGKGNPEVEYLRFGAAHIRHILQAYRHN | 9.2
13 | D-domain SEQ ID NO: 217 (designed binder) MGSWTEFYHRLYAIRERLSALGGSEAELAAFEKEIAAFESELQAYKGKGNPEVEYLRFGAAHIRHLLQAYRHN | 9.63
14 | D-domain SEQ ID NO: 218 (designed binder) MGSWVEFETRLDAIRMRLGALGGSEAELAAFEKEIAAFESELQAYKGKGNPEVEYLRFGAAHIRALLQAYRHN | 14.1
15 | D-domain SEQ ID NO: 171 (designed binder) MGSWIEFHQRLNAIFNRLRALGGSEAELAAFEKEIAAFESELQAYKGKGNPEVEWLRHHAAYIREMLQAYRHN | 7.34
16 | D-domain SEQ ID NO: 179 (designed binder) MGSWVEFWERLDAIDNRLGALGGSEAELAAFEKEIAAFESELQAYKGKGNPEVEWLRWHAAYIRGYLQAYRHN | 11.4
17 | D-domain SEQ ID NO: 180 (designed binder) MGSWAEFWDRLDAIDSRLNALGGSEAELAAFEKEIAAFESELQAYKGKGNPEVEYLREWAAYIRGYLQAYRHN | 18.2
18 | D-domain SEQ ID NO: 181 (designed binder) MGSWAEFDLRLRAIAKRLVALGGSEAELAAFEKEIAAFESELQAYKGKGNPEVEMLRLDAAYIRGVLQAYRHN | 4.09
19 | D-domain SEQ ID NO: 152 (designed binder) MGSWVEFNARLDAILFRLRALGGSEAELAAFEKEIAAFESELQAYKGKGNPEVEHLRDQAAYIRLMLQAYRHN | 13.5
20 | D-domain SEQ ID NO: 166 (designed binder) MGSWMEFDERLWAIKKRLRALGGSEAELAAFEKEIAAFESELQAYKGKGNPEVEFLRHQAAYIRMLLQAYRHN | 9.53
21 | D-domain SEQ ID NO: 157 (designed binder) MGSWYEFQDRLSAITTRLRALGGSEAELAAFEKEIAAFESELQAYKGKGNPEVELLRDKAAYIRFMLQAYRHN | 10.1
22 | D-domain SEQ ID NO: 165 (designed binder) MGSWYEFDERLSAIKLRLRALGGSEAELAAFEKEIAAFESELQAYKGKGNPEVEVLRAQAAYIRAILQAYRHN | 16.9
23 | D-domain SEQ ID NO: 167 (designed binder) MGSWHEFDGRLSAIKRRLWALGGSEAELAAFEKEIAAFESELQAYKGKGNPEVEHLRDQAAYIRYMLQAYRHN | 5.4

Row | Binder | ELISA_avg
24 | D-domain SEQ ID NO: 168 (designed binder) MGSWYEFDGRLQAIIARLRALGGSEAELAAFEKEIAAFESELQAYKGKGNPEVEHLRFRAAYIRWILQAYRHN | 3.29
25 | D-domain SEQ ID NO: 158 (designed binder) MGSWEEFDDRLNAIVYRLRALGGSEAELAAFEKEIAAFESELQAYKGKGNPEVEMLRDQAAYIRLMLQAYRHN | 18.6
26 | D-domain SEQ ID NO: 156 (designed binder) MGSWYEFEDRLLAIKVRLRALGGSEAELAAFEKEIAAFESELQAYKGKGNPEVEYLRDQAAYIRFMLQAYRHN | 17.6
27 | D-domain SEQ ID NO: 154 (designed binder) MGSWIEFDTRLAAIVHRLRALGGSEAELAAFEKEIAAFESELQAYKGKGNPEVELLRDKAAYIRYMLQAYRHN | 13.9
28 | D-domain SEQ ID NO: 170 (designed binder) MGSWVEFDNRLYAIVDRLRALGGSEAELAAFEKEIAAFESELQAYKGKGNPEVEHLRQKAAYIRLILQAYRHN | 11.7
29 | D-domain SEQ ID NO: 163 (designed binder) MGSWMEFEGRLHAIKRRLRALGGSEAELAAFEKEIAAFESELQAYKGKGNPEVEVLRDQAAYIRLLLQAYRHN | 7.33
30 | D-domain SEQ ID NO: 159 (designed binder) MGSWVEFEQRLHAIVVRLRALGGSEAELAAFEKEIAAFESELQAYKGGGNPEVENLRDQAAYIRFMLQAYRHN | 17.7
31 | D-domain SEQ ID NO: 153 (designed binder) MGSWMEFNVRLRAILDRLHALGGSEAELAAFEKEIAAFESELQAYKGKGNPEVELLRDKAAYIRFMLQAYRHN | 15.6
32 | D-domain SEQ ID NO: 161 (designed binder) MGSWYEFEHRLKAIVSRLGALGGSEAELAAFEKEIAAFESELQAYKGKGNPEVEHLRDKAAYIRYMLQAYRHN | 4.55
33 | D-domain SEQ ID NO: 155 (designed binder) MGSWIEFDYRLKAILHRLRALGGSEAELAAFEKEIAAFESELQAYKGKGNPEVEGLRDKAAYIRFLLQAYRHN | 11.9
34 | D-domain SEQ ID NO: 160 (designed binder) MGSWVEFEWRLEAIVVRLRALGGSEAELAAFEKEIAAFESELQAYKGKGNPEVEHLRDKAAYIRYMLQAYRHN | 14.9
35 | D-domain SEQ ID NO: 162 (designed binder) MGSWMEFKHRLAAITFRLRALGGSEAELAAFEKEIAAFESELQAYKGKGNPEVELLRDKAAYIRLLLQAYRHN | 6.06
36 | D-domain SEQ ID NO: 164 (designed binder) MGSWSEFVFRLDTIKSRLRALGGSEAELAAFEKEIAAFESELQAYKGKGNPEVETLRDQAAYIRLMLQAYRHN | 19.9
37 | D-domain SEQ ID NO: 175 (designed binder) MGSWYEFAHRLEAIEWRLIALGGSEAELAAFEKEIAAFESELQAYKGKGNPEVEELRQYAAAIRNYLQAYRHN | 9.48
38 | D-domain SEQ ID NO: 203 (designed binder) MGSWTEFWTRLNAIYERLDALGGSEAELAAFEKEIAAFESELQAYKGKGNPEVEKLRFTAASIRMYLQAYRHN | 8.43
39 | D-domain SEQ ID NO: 176 (designed binder) MGSWYEFDTRLGAIRNRLGALGGSEAELAAFEKEIAAFESELQAYKGKGNPEVEWLRFQAAYIRFLLQAYRHN | 13.9
40 | D-domain SEQ ID NO: 177 (designed binder) MGSWYEFWVRLTAIRWRLEALGGSEAELAAFEKEIAAFESELQAYKGKGNPEVEWLREQAASIRWVLQAYRHN | 5.72
41 | D-domain SEQ ID NO: 169 (designed binder) MGSWFEFDKRLYAIIHRLRALGGSEAELAAFEKEIAAFESELQAYKGKGNPEVEKLRYKAAIIRLYLQAYRHN | 11.8
42 | D-domain SEQ ID NO: 178 (designed binder) MGSWFEFDRRLKAIDRRLMALGGSEAELAAFEKEIAAFESELQAYKGKGNPEVEWLRMQAAIIRNYLQAYRHN | 6.16
43 | D-domain SEQ ID NO: 173 (designed binder) MGSWYEFWLRLSAISYRLQALGGSEAELAAFEKEIAAFESELQAYKGKGNPEVEWLRKEAAEIRSWLQAYRHN | 14.5
44 | D-domain SEQ ID NO: 213 (designed binder) MGSWYEFWKRLYAIEYRLFALGGSEAELAAFEKEIAAFESELQAYKGKGNPEVEALRKVAAKIREQLQAYRHN | 14.8
45 | D-domain SEQ ID NO: 174 (designed binder) MGSWYEFQLRLWAIHWRLIALGGSEAELAAFEKEIAAFESELQAYKGKGNPEVEWLRMRAAEIRNELQAYRHN | 20.6
